B1: Tub4 (yeast gamma-tubulin), wild type, untagged [S. cerevisiae] / Spc110 [S. cerevisiae (endogenous in yeast cells)] (parent)
chain 1: MGGEIITLQAGQCGNHVGKFLWSQLAKEHAIGTDGLSQLPDSSTERDDDTKPFFRENSRNKFTPRAIMMDSEPSVIADVENTFRGFFDPRNTWVASDGASAGNSWANGYDIGTRNQDDILNKIDKEIDSTDNFEGFQLLHSVAGGTGSGLGSNLLEALCDRYPKKILTTYSVFPARSSEVVVQSYNTILALRRLIEDSDATVVFDNASLLNISGKVFRNPNIDLQHTNQLISTIISSVTNSIRFPSYMYSSMSSIYSTLIPSPELHFLSPSFTPFTSDYIHDDIAHKGHSSYDVMLDLLDPSNSLVSTAMNNPTYFNVYNTIIGNVEPRQISRAMTKLQQRIKFPSWSSSAMHVNIGRRSPYLPLQPNENEVSGMMLSNMSTVVNVFENACNTFDKVFAKGAFLNNYNVGDLFQSMQNVQDEFAESREVVQSLMEDYVAAEQDSYLDDVLVDDENMVGELEEDLDADGDHKLV
chain 2: MDEASHLPNGSLKNMEFTPVGFIKSKRNTTQTQVVSPTKVPNANNGDENEGPVKKRQRRSIDDTIDSTRLFSEASQFDDSFPEIKANIPPSPRSGNVDKSRKRNLIDDLKKDVPMSQPLKEQEVREHQMKKERFDRALESKLLGKRHITYANSDISNKELYINEIKSLKHEIKELRKEKNDTLNNYDTLEEETDDLKNRLQALEKELDAKNKIVNSRKVDDHSGCIEEREQMERKLAELERKLKTVKDQVLELENNSDVQSLKLRSKEDELKNLMNELNELKSNAEEKDTQLEFKKNELRKRTNELNELKIKSDEMDLQLKQKQNESKRLKDELNELETKFSENGSQSSAKENELKMLKNKIAELEEEISTKNSQLIAKEGKLASLMAQLTQLESKLNQRDSQLGSREEELKKTNDKLQKDIRIAREETVSKDERIIDLQKKVKQLENDLFVIKKTHSESKTITDNELESKDKLIKILENDLKVAQEKYSKMEKELKEREFNYKISESKLEDEKTTLNEKISNLAAENSQLKNKIEDNSTATHHMKENYEKQLESLRKDIEEYKESAKDSEDKIEELKIRIAENSAKVSEKRSKDIKQKDEQISDLTQNLKLQEDEISSLKSIIDRYKKDFNQLKSEQSNIQHDLNLQILNLENKLIESEDELKSLRDSQKIEIENWKRKYNNLSLENDRLLTEKESASDKEREISILNRKLDEMDKEKWNLQESKEKYKRELQKVITANDRLRREKEELNENSNNIRIMEDKMTRIKKNYLSEITSLQEENRRLEERLILNERRKDNDSTMQLNDIISYYKLKYHSEVRHNNDLKVINDYLNKVLALGTRRLRLDTRKGEHSLNISLPDDDELDRDYYNSHVYTRYHDYEYPLRFNLNRRGPYFERRLSFKTVALLVLACVRMKRIAFYRRSDDNRLRILRDRIESSSGRISW

Variants of: B1
Test: co-immunoprecipitation (anti-HA IP of Spc97-3HA), quantified immunoblot
Conditions: with Spc110 [S. cerevisiae (endogenous in yeast cells)]; Indirect: Spc110 recovered in Spc97-3HA IP from tub4-S74E cells; TUB4-AID SPC97-3HA cells, IAA for 2 h at 30°C; normalized to precipitated Spc97-3HA; parent: 1; read off a plot

Row | ratio to parent | Variant
1 | 1.3 RI | chain 1 MGGEIITLQAGQCGNHVGKFLWSQLAKEHAIGTDGLSQLPDSSTERDDDTKPFFRENSRNKFTPRAIMMDSEPEVIADVENTFRGFFDPRNTWVASDGASAGNSWANGYDIGTRNQDDILNKIDKEIDSTDNFEGFQLLHSVAGGTGSGLGSNLLEALCDRYPKKILTTYSVFPARSSEVVVQSYNTILALRRLIEDSDATVVFDNASLLNISGKVFRNPNIDLQHTNQLISTIISSVTNSIRFPSYMYSSMSSIYSTLIPSPELHFLSPSFTPFTSDYIHDDIAHKGHSSYDVMLDLLDPSNSLVSTAMNNPTYFNVYNTIIGNVEPRQISRAMTKLQQRIKFPSWSSSAMHVNIGRRSPYLPLQPNENEVSGMMLSNMSTVVNVFENACNTFDKVFAKGAFLNNYNVGDLFQSMQNVQDEFAESREVVQSLMEDYVAAEQDSYLDDVLVDDENMVGELEEDLDADGDHKLV [chain 1 S74E]

Same assay, conditions: with Spc110 [S. cerevisiae (endogenous in yeast cells)], Indirect: Spc110 recovered in Spc97-3HA IP from tub4-S360D cells, TUB4-AID SPC97-3HA cells, IAA for 2 h at 30°C, normalized to precipitated Spc97-3HA, read off a plot

Row | ratio to parent | Variant
2 | 0.28 RI | chain 1 MGGEIITLQAGQCGNHVGKFLWSQLAKEHAIGTDGLSQLPDSSTERDDDTKPFFRENSRNKFTPRAIMMDSEPSVIADVENTFRGFFDPRNTWVASDGASAGNSWANGYDIGTRNQDDILNKIDKEIDSTDNFEGFQLLHSVAGGTGSGLGSNLLEALCDRYPKKILTTYSVFPARSSEVVVQSYNTILALRRLIEDSDATVVFDNASLLNISGKVFRNPNIDLQHTNQLISTIISSVTNSIRFPSYMYSSMSSIYSTLIPSPELHFLSPSFTPFTSDYIHDDIAHKGHSSYDVMLDLLDPSNSLVSTAMNNPTYFNVYNTIIGNVEPRQISRAMTKLQQRIKFPSWSSSAMHVNIGRRDPYLPLQPNENEVSGMMLSNMSTVVNVFENACNTFDKVFAKGAFLNNYNVGDLFQSMQNVQDEFAESREVVQSLMEDYVAAEQDSYLDDVLVDDENMVGELEEDLDADGDHKLV [chain 1 S360D]

Same assay, conditions: with Spc110 [S. cerevisiae (endogenous in yeast cells)], Indirect: Spc110 recovered in Spc97-3HA IP from tub4-S100E cells, TUB4-AID SPC97-3HA cells, IAA for 2 h at 30°C, normalized to precipitated Spc97-3HA, read off a plot

Row | ratio to parent | Variant
3 | 0.76 RI | chain 1 MGGEIITLQAGQCGNHVGKFLWSQLAKEHAIGTDGLSQLPDSSTERDDDTKPFFRENSRNKFTPRAIMMDSEPSVIADVENTFRGFFDPRNTWVASDGAEAGNSWANGYDIGTRNQDDILNKIDKEIDSTDNFEGFQLLHSVAGGTGSGLGSNLLEALCDRYPKKILTTYSVFPARSSEVVVQSYNTILALRRLIEDSDATVVFDNASLLNISGKVFRNPNIDLQHTNQLISTIISSVTNSIRFPSYMYSSMSSIYSTLIPSPELHFLSPSFTPFTSDYIHDDIAHKGHSSYDVMLDLLDPSNSLVSTAMNNPTYFNVYNTIIGNVEPRQISRAMTKLQQRIKFPSWSSSAMHVNIGRRSPYLPLQPNENEVSGMMLSNMSTVVNVFENACNTFDKVFAKGAFLNNYNVGDLFQSMQNVQDEFAESREVVQSLMEDYVAAEQDSYLDDVLVDDENMVGELEEDLDADGDHKLV [chain 1 S100E]

Reference: PMC3088709, “Phosphorylation of the Yeast γ-Tubulin Tub4 Regulates Microtubule Function” (PLoS ONE, 2011)
